The record followed here is article PMC5072841, “Insights into HIV-1 proviral transcription from integrative structure and dynamics of the Tat:AFF4:P-TEFb:TAR complex” (eLife, 2016).

Series [1] deals with HIV-1 Tat;Cyclin T1 (CycT1, P-TEFb subunit);CDK9 (P-TEFb subunit);AFF4 2-73 WT (HIV-1;human;human;human). Kind of series: EMSA. Particulars: EMSA: 100 pM 32P-TAR, 0.009-190 nM Tat:P-TEFb, 5-fold molar excess AFF4 over P-TEFb; buffer and temperature as in Schulze-Gahmen 2014 (not given). SHAPE: RNA ….
The test system of series [2] is HIV-1 Tat;Cyclin T1 (CycT1, P-TEFb subunit);CDK9 (P-TEFb subunit) (HIV-1;human;human). The series can be described thus: EMSA. Particulars: EMSA: 100 pM 32P-TAR, 0.009-190 nM Tat:P-TEFb, 5-fold molar excess AFF4 over P-TEFb; buffer and temperature as in Schulze-Gahmen 2014 (not given). SHAPE: RNA ….
The test system of series [3] is HIV-1 Tat;Cyclin T1 (CycT1, P-TEFb subunit);CDK9 (P-TEFb subunit);AFF4 2-73 E61A (HIV-1;human;human;human). The series can be described thus: EMSA. Particulars: EMSA: 100 pM 32P-TAR, 0.009-190 nM Tat:P-TEFb, 5-fold molar excess AFF4 over P-TEFb; buffer and temperature as in Schulze-Gahmen 2014 (not given). SHAPE: RNA ….
Series [4] concerns HIV-1 Tat;Cyclin T1 (CycT1, P-TEFb subunit);CDK9 (P-TEFb subunit);AFF4 2-73 K63A (HIV-1;human;human;human). The series can be described thus: EMSA. To be noted: EMSA: 100 pM 32P-TAR, 0.009-190 nM Tat:P-TEFb, 5-fold molar excess AFF4 over P-TEFb; buffer and temperature as in Schulze-Gahmen 2014 (not given). SHAPE: RNA ….
Series [5] concerns HIV-1 Tat;Cyclin T1 (CycT1, P-TEFb subunit);CDK9 (P-TEFb subunit);AFF4 2-73 WT (HIV-1;human;human;human). Kind of series: EMSA. Particulars: EMSA: 100 pM 32P-TAR, 0.009-190 nM Tat:P-TEFb, 5-fold molar excess AFF4 over P-TEFb; buffer and temperature as in Schulze-Gahmen 2014 (not given). SHAPE: RNA …. This is another data set of the same source.
Another series concerns the target T1, human cyclin T1 1-264 (human, UniProt O60563 1-264).
T1 construct: human cyclin T1, residues 1-264; also called CycT1; CycT; source: High 5 insect cells, recombinant baculovirus, co-expressed with CDK9 and Tat, purified
Kind of series: crystal structure; Tat_(1-57):AFF4_(32-67):P-TEFb combined with TAR21 RNA (nucleotides 21-41) at 1:1.3; sitting drops at 18°C; 5.9 Å; molecular replacement with PDB 4OGR. Particulars: both partners purified.

T1 sequence (O60563 1-264): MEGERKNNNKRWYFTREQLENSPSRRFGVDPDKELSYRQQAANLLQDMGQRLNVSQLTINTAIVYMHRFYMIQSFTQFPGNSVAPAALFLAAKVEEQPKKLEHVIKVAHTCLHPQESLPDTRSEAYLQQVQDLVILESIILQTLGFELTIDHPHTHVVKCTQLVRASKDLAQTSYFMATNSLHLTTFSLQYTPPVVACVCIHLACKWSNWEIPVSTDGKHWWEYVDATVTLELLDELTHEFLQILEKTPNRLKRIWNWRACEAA

HIV-1 TAR 18-44 WT: the results for the Kd in series [1], in series [2] and in series [5] were 0.2 nM, 19 nM and 0.26 nM, respectively. Moreover, the figures for the binding signal (fold reduction in affinity vs WT AFF4) in series [3] and in series [4] were 3 and 2, respectively.

B1: AFF4 peptide 32-67 (peptide, UniProt Q9UHB7 32-67, looked up)
chain: Ac-SPLFAEPYKVTSKEDKLSSRIQSMLGNYDEMKDFIG-NH2
notes: human AFF4, residues 32-67; also called AFF4_(32-67); synthetic AFF4 peptide (32-67); source: synthetic peptide (University of Utah DNA/Peptide Facility)
On to B1, for which the binding result with human cyclin T1 1-264 is reported as “binds”.
